Laboratory results taken from IntAct's records for PubMed 19632993.

B1: Chromosomal replication initiator protein DnaA (Escherichia coli (strain K12)), P03004 (parent)
chain: MSLSLWQQCLARLQDELPATEFSMWIRPLQAELSDNTLALYAPNRFVLDWVRDKYLNNINGLLTSFCGADAPQLRFEVGTKPVTQTPQAAVTSNVAAPAQVAQTQPQRAAPSTRSGWDNVPAPAEPTYRSNVNVKHTFDNFVEGKSNQLARAAARQVADNPGGAYNPLFLYGGTGLGKTHLLHAVGNGIMARKPNAKVVYMHSERFVQDMVKALQNNAIEEFKRYYRSVDALLIDDIQFFANKERSQEEFFHTFNALLEGNQQIILTSDRYPKEINGVEDRLKSRFGWGLTVAIEPPELETRVAILMKKADENDIRLPGEVAFFIAKRLRSNVRELEGALNRVIANANFTGRAITIDFVREALRDLLALQEKLVTIDNIQKTVAEYYKIKVADLLSKRRSRSVARPRQMAMALAKELTNHSLPEIGDAFGGRDHTTVLHACRKIEQLREESHDIKEDFSNLIRTLSS
partner: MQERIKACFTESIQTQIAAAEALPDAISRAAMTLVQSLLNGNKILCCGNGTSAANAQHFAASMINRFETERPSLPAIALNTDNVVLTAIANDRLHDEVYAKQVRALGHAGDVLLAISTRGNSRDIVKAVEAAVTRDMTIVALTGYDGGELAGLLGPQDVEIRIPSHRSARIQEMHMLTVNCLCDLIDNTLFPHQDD

Variants of: B1
Details: with diaa_ecoli diaA

Variant | effect of a mutation on the interaction
E21A | decreasing interaction
F46A | disrupting interaction
